For this experiment, the target named is HHLA2 (recombinant, SPR analyte) (human, UniProt Q9UM44 23-414). The experiment in a line: SPR.

B1: KIR3DL3 (recombinant, coupled to the streptavidin sensor chip) (receptor)
chain: QDKPFLSAWPGTVVSEGQHVTLQCRSRLGFNEFSLSKEDGMPVPELYNRIFRNSFLMGPVTPAHAGTYRCCSSHPHSPTGWSAPSNPVVIMVTGVHRKPSLLAHPGPLVKSGETVILQCWSDVRFERFLLHREGITEDPLRLVGQLHDAGSQVNYSMGPMTPALAGTYRCFGSVTHLPYELSAPSDPLDIVVVGLYGKPSLSAQPGPTVQAGENVTLSCSSRSLFDIYHLSREAEAGELRLTAVLRVNGTFQANFPLGPVTHGGNYRCFGSFRALPHAWSDPSDPLPVSVTGNSRHL
Consider B1, for which the Kd (commonly the free concentration of one partner at which half of the binding sites on the other are occupied at equilibrium, for simple one-to-one binding) turned out to be 48.9 µM.
